Reference: US20250213627A1, “RECOMBINANT MICROORGANISM-BASED METHODS AND COMPOSITIONS FOR TREATMENT OF DISEASE” (Baylor College of Medicine, priority 2021, published 2025)

Target: other channels
Test: cell-based or functional assay

B1: synthetic ShK-235 (peptide)
peptide: RSCIDTIPKSRCTAFKCKHSIKYRLSFCRKTCGTCA
modifications: here or on the partner: 3 disulfide bonds (oxidatively folded synthetic peptide)
selectivity for Kv1.3 over other channels (whole-cell patch-clamp): > 2200 fold
